From publication PMC9001700 come the findings set out here.

Holding throughout (assay): BLI
Experiment [1] addresses HKU1 stem helix peptide (HCoV-HKU1).
In experiment [2] the target is OC43 stem helix peptide (HCoV-OC43).
In experiment [3] the target is MERS-CoV stem helix peptide (MERS-CoV).
For experiment [4], the target named is SARS-CoV-2 stem helix peptide 1145-[…]-1167 (SARS-CoV-2).
Experiment [5] concerns the target HCoV-OC43 stem helix peptide (HCoV-OC43).
For experiment [6], the target named is SARS-CoV-2 stem helix peptide 1145-1167 (SARS-CoV-2).
Experiment [7] addresses HCoV-HKU1 stem helix peptide (HCoV-HKU1).
The target in experiment [8] is MERS-CoV stem helix peptide (MERS-CoV). The source holds these as a separate data set.

Where two headings read alike, the source gives them in different places.

Regarding CV3-25 Fab, the Kd in experiment [1] came to 31 nM; in experiment [2], 39.3 nM; in experiment [3], 20.4 nM; in experiment [4], 5.23 nM; in experiment [5] it was 40 nM; in experiment [6], 5.2 nM. Moreover, the results for the Kd in experiment [7] and in experiment [8] were 31 nM and 20 nM, respectively. For the same substance, the koff is 0.000676 s⁻¹ in experiment [1], 0.000613 s⁻¹ in experiment [2], 0.000669 s⁻¹ in experiment [3] and 0.000159 s⁻¹ in experiment [4]. The kon in experiment [1] is 23000 M⁻¹ s⁻¹; in experiment [2], 17000 M⁻¹ s⁻¹; in experiment [3] it was 33000 M⁻¹ s⁻¹; in experiment [4], 30000 M⁻¹ s⁻¹.

As usually defined, the Kd is the concentration at which binding is half-saturated. High values mean weaker binding, low ones tighter binding. The koff is the rate constant with which the complex falls apart. Read a low koff as a long-lived complex. A word on the kon: it is a measure of how fast the partners come together.
